The values that follow are results of earlier work, collected in patent US9932367B2, “Modification of polypeptides” (BicycleRD Limited, priority 2013, dated 2018).

Starred links: 1 amine or outer side, 2 acyl side, 3 side chain; linkers in the order of their positions; H or OH if unused. Positions of bridges follow the written chain, without caps; N, C: chain ends. TBMB = c1c(C[*:1])cc(C[*:3])cc1C[*:2]

One data set concerns the target human PK (hPK) (Homo sapiens, UniProt P03952).
The target of a further data set is rat PK (Rattus norvegicus, UniProt P14272). The conditions noted are these: highest concentration tested (10 μM).
In a further data set the target is factor XIa (hfXIa) (Homo sapiens, UniProt P03951). The conditions noted are these: highest concentration tested (10 μM).
In another data set the target is thrombin (Homo sapiens, UniProt P00734). The conditions noted are these: highest concentration tested (10 μM).

human PK (hPK), sequence (P03952 391-638 limits assumed): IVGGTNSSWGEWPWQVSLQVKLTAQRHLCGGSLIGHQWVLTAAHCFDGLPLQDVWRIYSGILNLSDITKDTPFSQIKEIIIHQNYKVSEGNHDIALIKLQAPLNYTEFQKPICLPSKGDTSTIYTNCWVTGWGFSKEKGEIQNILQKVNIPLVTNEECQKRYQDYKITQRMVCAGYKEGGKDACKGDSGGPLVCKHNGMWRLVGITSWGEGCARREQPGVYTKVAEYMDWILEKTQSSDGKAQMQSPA
human PK (hPK), sequence (P03952 20-390 partner limits assumed): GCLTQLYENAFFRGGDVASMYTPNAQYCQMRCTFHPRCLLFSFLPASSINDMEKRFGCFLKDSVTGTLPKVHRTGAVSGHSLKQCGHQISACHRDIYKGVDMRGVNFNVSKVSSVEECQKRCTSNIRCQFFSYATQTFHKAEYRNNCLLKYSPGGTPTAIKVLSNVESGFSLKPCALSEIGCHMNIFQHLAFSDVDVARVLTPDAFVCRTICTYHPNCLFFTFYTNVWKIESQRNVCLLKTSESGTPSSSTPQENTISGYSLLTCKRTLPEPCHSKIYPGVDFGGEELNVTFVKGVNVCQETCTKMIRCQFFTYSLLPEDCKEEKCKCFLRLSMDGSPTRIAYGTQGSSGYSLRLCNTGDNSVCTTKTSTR
rat PK, sequence (P14272 20-638): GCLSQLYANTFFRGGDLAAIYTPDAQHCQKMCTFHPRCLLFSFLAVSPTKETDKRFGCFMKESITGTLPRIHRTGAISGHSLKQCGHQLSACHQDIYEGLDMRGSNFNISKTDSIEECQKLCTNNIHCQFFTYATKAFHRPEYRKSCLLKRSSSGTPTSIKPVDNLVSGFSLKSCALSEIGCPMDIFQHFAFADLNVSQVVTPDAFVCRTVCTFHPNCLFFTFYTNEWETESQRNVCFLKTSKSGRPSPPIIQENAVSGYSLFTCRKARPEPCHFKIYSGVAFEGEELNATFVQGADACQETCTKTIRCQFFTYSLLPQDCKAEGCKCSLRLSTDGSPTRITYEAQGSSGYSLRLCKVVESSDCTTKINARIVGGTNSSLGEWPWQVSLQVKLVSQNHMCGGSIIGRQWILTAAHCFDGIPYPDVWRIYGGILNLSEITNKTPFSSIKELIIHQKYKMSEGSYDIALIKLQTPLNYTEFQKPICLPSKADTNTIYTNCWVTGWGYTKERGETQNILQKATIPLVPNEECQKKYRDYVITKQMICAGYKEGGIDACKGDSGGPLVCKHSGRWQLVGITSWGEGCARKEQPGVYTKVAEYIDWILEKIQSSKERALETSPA
factor XIa (hfXIa), sequence (P03951 388-625 limits assumed): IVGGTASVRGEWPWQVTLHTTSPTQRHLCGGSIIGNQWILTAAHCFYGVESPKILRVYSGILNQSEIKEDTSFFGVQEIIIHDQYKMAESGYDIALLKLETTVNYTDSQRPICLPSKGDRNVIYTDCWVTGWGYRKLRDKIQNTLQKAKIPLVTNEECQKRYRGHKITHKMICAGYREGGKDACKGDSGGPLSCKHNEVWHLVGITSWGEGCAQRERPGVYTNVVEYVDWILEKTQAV
factor XIa (hfXIa), sequence (P03951 19-387 partner limits assumed): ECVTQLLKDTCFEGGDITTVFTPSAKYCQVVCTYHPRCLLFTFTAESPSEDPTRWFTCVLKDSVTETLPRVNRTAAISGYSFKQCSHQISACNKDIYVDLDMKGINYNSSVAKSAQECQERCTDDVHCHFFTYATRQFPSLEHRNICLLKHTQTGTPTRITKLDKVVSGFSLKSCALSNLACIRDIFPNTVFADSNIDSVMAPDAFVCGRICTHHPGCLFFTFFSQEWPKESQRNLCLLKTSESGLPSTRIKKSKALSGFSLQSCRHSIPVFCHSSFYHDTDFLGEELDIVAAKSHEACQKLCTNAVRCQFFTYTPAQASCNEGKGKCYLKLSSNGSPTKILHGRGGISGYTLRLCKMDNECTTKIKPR

As to “three cysteines containing peptide (H-ACSDRFRNCPADEALCG-NH2) (SEQ ID NO: 18) coupled with TBMB; inhibitor of human plasma kallikrein (linker 2-9-16 via TBMB) [PK15]”, in the data set with human PK (hPK), the Ki is 3 nM. For the same substance, in the data set with rat PK, the “inhibition of rat PK” value is “did not inhibit”. Further, the “inhibition of human factor XIa” value with factor XIa (hfXIa) is on record as “did not inhibit”. The inhibition of thrombin result in the data set with thrombin was “did not inhibit”.

The Ki is the equilibrium dissociation constant of an inhibitor or competing ligand from its target.
